Consider three molecules from patent US20170165365A1 (SYMPHOGEN A S, published 2017).

The target in experiment [1] is T1, cynomolgus EGFR antigen (cynomolgus monkey, UniProt A0A2K5WK39 25-645).
T1 construct: In-house antigen; also called cynomolgus antigen
Briefly: ELISA, coated cy EGFR. The protocol: (§1) Antibody-antigen binding was measured by ELISA with coated antigens. Human antigens were obtained from Sino Biologicals. All other antigens were produced in-house by transient expression in CHO or HEK293 cells. Chimeric and humanized antibodies, as well as an isotype control antibody, were incubated with the coated antigens at different concentrations. After wash, bound antibodies were detected by HRP-(horse radish peroxidase)-conjugated secondary antibodies.
On the technique in general: An ELISA detects its analyte on a solid surface through an enzyme-linked reagent.

The target in experiment [2] is T2, murine HER4 antigen (mouse, UniProt Q61527 26-652, limits assumed).
T2 construct: In-house antigen coated for ELISA; also called mouse HER4
T2 sequence (looked up): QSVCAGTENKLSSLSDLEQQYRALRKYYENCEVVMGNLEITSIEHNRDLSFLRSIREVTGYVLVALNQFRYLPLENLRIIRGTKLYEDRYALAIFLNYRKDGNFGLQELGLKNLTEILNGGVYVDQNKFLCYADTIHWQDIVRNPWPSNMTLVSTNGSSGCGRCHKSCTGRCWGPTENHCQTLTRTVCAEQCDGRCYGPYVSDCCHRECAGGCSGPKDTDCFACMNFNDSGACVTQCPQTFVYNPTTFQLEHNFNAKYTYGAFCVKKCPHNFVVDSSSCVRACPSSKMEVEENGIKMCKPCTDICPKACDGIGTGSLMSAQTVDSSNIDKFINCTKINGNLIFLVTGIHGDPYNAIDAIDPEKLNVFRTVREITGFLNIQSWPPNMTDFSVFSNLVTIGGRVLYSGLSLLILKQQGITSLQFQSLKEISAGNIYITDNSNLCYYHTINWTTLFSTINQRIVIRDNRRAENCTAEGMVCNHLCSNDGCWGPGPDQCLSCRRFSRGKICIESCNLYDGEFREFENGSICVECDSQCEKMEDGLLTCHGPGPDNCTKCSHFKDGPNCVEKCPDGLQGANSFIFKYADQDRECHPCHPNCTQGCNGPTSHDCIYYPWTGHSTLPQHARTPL
Briefly: ELISA, coated mu HER4. The essentials:
(§2)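 Read-out is HRP-conjugated secondary antibody detecting chimeric or humanized antibodies bound to coated antigen after washing. Antibodies were tested at different concentrations with an isotype control.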

Experiment [3] concerns the target T3, mouse HER3 antigen (mouse, UniProt Q61526 20-641, limits assumed).
T3 construct: In-house antigen coated for ELISA; also called mouse antigen; murine HER3
Briefly: ELISA, coated mu HER3. The gist of the method: as §2

Experiment [4] deals with cynomolgus HER2 antigen (cynomolgus monkey). Description: SPR (ProteOn XPR36), IgG captured by anti-human Fc, soluble monovalent antigen, 1:1 fit.
The target of experiment [5] is T4, mouse HER2 antigen (mouse, UniProt P70424 23-653, limits assumed).
T4 construct: In-house antigen coated for ELISA; also called mouse antigen; murine HER2
T4 sequence (P70424 23-653 limits assumed): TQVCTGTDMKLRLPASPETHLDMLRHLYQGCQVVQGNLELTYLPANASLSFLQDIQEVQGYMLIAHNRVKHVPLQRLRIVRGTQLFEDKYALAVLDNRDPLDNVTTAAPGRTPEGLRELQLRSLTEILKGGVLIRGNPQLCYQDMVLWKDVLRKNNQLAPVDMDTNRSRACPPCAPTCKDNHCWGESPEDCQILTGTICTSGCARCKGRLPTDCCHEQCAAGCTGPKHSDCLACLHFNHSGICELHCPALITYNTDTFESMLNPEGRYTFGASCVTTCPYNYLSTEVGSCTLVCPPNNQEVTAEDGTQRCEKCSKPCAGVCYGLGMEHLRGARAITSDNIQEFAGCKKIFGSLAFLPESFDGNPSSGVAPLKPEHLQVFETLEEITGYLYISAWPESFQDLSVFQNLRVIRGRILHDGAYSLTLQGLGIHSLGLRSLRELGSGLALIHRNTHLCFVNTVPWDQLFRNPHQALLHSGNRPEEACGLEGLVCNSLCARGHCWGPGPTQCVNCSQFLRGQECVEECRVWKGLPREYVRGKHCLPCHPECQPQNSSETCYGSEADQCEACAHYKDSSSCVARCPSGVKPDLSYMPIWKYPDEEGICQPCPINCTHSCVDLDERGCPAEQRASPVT
Briefly: ELISA, coated mu HER2. The essentials:
as §2

The target of experiment [6] is T5, human HER4 antigen (human, UniProt Q15303 26-649, limits assumed).
T5 construct: Antigen coated for ELISA
T5 sequence (looked up): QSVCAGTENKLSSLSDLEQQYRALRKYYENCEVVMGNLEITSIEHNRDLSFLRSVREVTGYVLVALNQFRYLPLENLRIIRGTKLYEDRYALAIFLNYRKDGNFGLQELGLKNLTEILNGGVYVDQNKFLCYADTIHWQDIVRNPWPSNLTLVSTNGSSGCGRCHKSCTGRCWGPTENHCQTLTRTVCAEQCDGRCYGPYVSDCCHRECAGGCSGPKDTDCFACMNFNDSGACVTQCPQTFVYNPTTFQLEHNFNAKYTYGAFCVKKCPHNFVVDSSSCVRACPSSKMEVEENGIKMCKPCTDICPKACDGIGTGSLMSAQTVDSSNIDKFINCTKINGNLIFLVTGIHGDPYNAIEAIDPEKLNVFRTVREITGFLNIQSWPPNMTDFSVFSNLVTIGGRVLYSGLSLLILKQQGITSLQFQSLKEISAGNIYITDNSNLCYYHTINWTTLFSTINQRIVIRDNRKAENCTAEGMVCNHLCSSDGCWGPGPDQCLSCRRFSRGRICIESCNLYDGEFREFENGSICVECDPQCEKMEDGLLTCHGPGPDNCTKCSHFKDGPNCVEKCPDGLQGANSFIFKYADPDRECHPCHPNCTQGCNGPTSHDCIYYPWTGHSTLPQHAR
Description: ELISA, coated hu HER4. The essentials: as §2

For experiment [7], the target named is T6, cynomolgus HER3 antigen (cynomolgus monkey, UniProt G7PIG5 20-643).
T6 construct: In-house antigen; also called cynomolgus antigen
T6 sequence (G7PIG5 entry or part of it): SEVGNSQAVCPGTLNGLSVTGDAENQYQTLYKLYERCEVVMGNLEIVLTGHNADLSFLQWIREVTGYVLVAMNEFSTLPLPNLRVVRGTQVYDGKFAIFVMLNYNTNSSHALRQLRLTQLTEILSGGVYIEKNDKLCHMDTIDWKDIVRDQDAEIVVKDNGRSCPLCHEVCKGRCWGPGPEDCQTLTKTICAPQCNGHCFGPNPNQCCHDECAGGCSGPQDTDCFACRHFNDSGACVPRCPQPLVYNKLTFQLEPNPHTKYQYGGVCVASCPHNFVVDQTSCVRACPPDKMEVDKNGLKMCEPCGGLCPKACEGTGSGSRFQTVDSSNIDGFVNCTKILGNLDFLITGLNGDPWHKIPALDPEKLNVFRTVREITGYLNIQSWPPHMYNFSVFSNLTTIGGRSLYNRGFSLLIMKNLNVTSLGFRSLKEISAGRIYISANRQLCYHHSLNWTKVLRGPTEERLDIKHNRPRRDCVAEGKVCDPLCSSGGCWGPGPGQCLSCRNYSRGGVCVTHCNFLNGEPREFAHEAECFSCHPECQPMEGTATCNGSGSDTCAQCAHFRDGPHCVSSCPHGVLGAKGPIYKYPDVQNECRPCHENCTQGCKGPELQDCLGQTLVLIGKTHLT
Description: ELISA, coated cy HER3. The gist of the method:
as §2

Experiment [8] deals with T7, human HER3 antigen (Sino Biologicals) (human, UniProt P21860 20-643).
T7 construct: Bought soluble antigen; also called human antigen
Briefly: ELISA, coated hu HER3. The gist of the method: as §2

For experiment [9], the target named is T8, mouse EGFR antigen (mouse, UniProt Q01279 25-647, limits assumed).
T8 construct: In-house antigen coated for ELISA; also called mouse antigen; murine EGFR
Description: ELISA, coated mu EGFR. The essentials:
as §2

Experiment [10] concerns the target T9, human EGFR antigen (Sino Biologicals) (human, UniProt P00533 25-645).
T9 construct: Bought soluble antigen; also called human antigen
Briefly: ELISA, coated hu EGFR. The protocol: as §1

In experiment [11] the target is T10, human HER2 antigen (Sino Biologicals) (human, UniProt P04626 23-652).
T10 construct: Bought soluble antigen; also called human antigen
Description: SPR (ProteOn XPR36), IgG captured by anti-human Fc, soluble monovalent antigen, 1:1 fit. The essentials:
(§3)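 Whole IgG captured on a mouse anti-human Fc surface; monovalent antigen injected at 50 μl/min as threefold serial dilutions from 100 nM stock.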

Experiment [12] concerns the target T10, human HER2 antigen (Sino Biologicals). Description: ELISA, coated hu HER2. The essentials: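 In this plate-based binding format, varying antibody concentrations are incubated on immobilized antigen. Bound antibody is then detected after a wash using HRP-labelled secondary reagents.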
In experiment [13] the target is T9, human EGFR antigen (Sino Biologicals). Description: SPR (ProteOn XPR36), IgG captured by anti-human Fc, soluble monovalent antigen, 1:1 fit. The gist of the method: as §3
In experiment [14] the target is T1, cynomolgus EGFR antigen. Described as above. The essentials: as §3
The target of experiment [15] is T3, mouse HER3 antigen. Briefly: ELISA on coated antigen. As for the experimental part: as §1
Experiment [16] has as its target T7, human HER3 antigen (Sino Biologicals). Description: ELISA on coated antigen. The protocol:
as §1

Experiment [17] addresses T2, murine HER4 antigen. Description: ELISA on coated antigen. The protocol: as §1
The target in experiment [18] is T6, cynomolgus HER3 antigen. Briefly: ELISA on coated antigen. The protocol: as §1
The target in experiment [19] is T8, mouse EGFR antigen. Briefly: ELISA on coated antigen. The protocol:
as §1

For experiment [20], the target named is T5, human HER4 antigen. Description: ELISA on coated antigen. As for the experimental part: as §1
Experiment [21] has as its target T9, human EGFR antigen (Sino Biologicals). Description: ELISA on coated antigen. As for the experimental part: as §1
Experiment [22] addresses T1, cynomolgus EGFR antigen. Briefly: ELISA on coated antigen. As for the experimental part: as §1
Experiment [23] concerns the target T4, mouse HER2 antigen. Description: ELISA on coated antigen. The protocol: as §1

T3 sequence (Q61526 20-641 limits assumed): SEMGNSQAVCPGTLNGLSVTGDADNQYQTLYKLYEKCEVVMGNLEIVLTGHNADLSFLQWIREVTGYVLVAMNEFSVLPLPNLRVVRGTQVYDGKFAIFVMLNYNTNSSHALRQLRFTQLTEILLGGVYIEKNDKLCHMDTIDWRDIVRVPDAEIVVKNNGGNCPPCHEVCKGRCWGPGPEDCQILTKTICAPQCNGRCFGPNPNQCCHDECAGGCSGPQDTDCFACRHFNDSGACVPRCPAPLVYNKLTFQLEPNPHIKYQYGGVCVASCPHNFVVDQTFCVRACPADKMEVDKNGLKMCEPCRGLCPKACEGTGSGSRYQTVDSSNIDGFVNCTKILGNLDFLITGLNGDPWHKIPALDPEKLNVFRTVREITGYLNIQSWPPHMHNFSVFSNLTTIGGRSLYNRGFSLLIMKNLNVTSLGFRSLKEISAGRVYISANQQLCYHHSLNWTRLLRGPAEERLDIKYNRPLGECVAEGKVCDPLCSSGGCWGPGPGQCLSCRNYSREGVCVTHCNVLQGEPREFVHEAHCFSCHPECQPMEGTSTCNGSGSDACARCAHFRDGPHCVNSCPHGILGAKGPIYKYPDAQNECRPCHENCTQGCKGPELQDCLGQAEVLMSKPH

B1: chimeric anti-HER2 antibody 4517 (antibody, V domains shown)
VH: EVQLVESGGDLVKPGGSLKLSCAASGFTFSSYGMSWVRLTPDKRLEWVATISGGGSYTYYPDSVKGRFTISRDIAKSTLYLQMSSLKSEDTAVYYCARKGNYGNYGKLAYWGQGTSVTVS
VL: DIQMTQSPASLSVSVGETVTITCRASENIYSNLAWYQQEQGKSPQLLVYAATNLADGVPSRFSGSGSGTQYSLKINSLQSEDFGSYYCQHFWGTPWTFGGGTKLEIKR
notes: light chain entry is full length
The term Kd denotes a measure of binding affinity in units of concentration. A higher Kd goes with weaker binding. In general, koff refers to the rate constant with which the complex falls apart. As usually defined, the kon is the rate constant with which the complex forms. Low readings indicate slower complex formation, high ones faster complex formation. As for B1, the binding result with cynomolgus EGFR antigen [1], with murine HER4 antigen [2], with mouse HER3 antigen [3], with mouse HER2 antigen [5], in the experiment with human HER4 antigen [6] and with cynomolgus HER3 antigen [7] was “no binding (tested: 40 nM)” each time. Also, the binding result (in experiment [8]; with mouse EGFR antigen [9]; in experiment [10]) was “no binding (tested: 40 nM)” throughout. In addition, the Kd is 3.7 nM in experiment [4] and 1.1 nM in [11]. Further, the koff was 0.00086 s⁻¹ in experiment [4] and 0.00029 s⁻¹ in [11]. For the same molecule, the kon came to 230000 M⁻¹ s⁻¹ in experiment [4] and 260000 M⁻¹ s⁻¹ in [11].

B2: chimeric anti-EGFR antibody 1565 (antibody, V domains shown)
VH: EVQLQQSGTELVKPGASVILSCKASGYTFTSYWMQWVKQRPGQGLEWIGNINPSNGGTSFNEEFKSRATLTVDKSSSTAYMQLSSLTSEDSAVYYCARDGGLYDGYYFDFWGQGTTLTVS
VL: NIVMTQSHKFMSTLIGARVSITCKASQDVDTAVAWYQQKPGQSPKLLIYWASTRHTGVPDRFTGSGSGTDFSLTVSNVQSEDLTDYFCQQYSSYPLTFGAGTKLELKR
notes: as for B1
In the case of B2, the binding result (in the experiment with murine HER4 antigen [2]; in [12]; with mouse HER3 antigen [3]; with mouse HER2 antigen [5]; with human HER4 antigen [6]; in the experiment with cynomolgus HER3 antigen [7]) was “no binding (tested: 40 nM)” in each case. Further, the binding result (in [8]; with mouse EGFR antigen [9]) was “no binding (tested: 40 nM)” in each case. Also, the results for the Kd (in experiment [13]; with cynomolgus EGFR antigen [14]) were 0.35 nM and 28 nM, respectively. Also, the koff came out at 0.00058 s⁻¹ in [13] and 0.016 s⁻¹ in the experiment with cynomolgus EGFR antigen [14]. In addition, the kon was 1.7e+06 M⁻¹ s⁻¹ in [13] and 580000 M⁻¹ s⁻¹ in the experiment with cynomolgus EGFR antigen [14].

B3: humanized anti-HER2 antibody 11249 (antibody, V domains shown)
VH: QVQLVQSGAEVKKPGASVKVSCKASGYTFTSHWMHWVRQAPGQGLEWMGNINPSSGGTNYNEKFKSRVTMTVDTSTSTVYMELSSLRSEDTAVYYCARAYYDFSWFVYWGQGTLVTVSS
VL: DIQMTQSPSSLSASVGDRVTITCRSSQDISNYLNWYQQKPGKAPKLLMYISRLHSGVPSRFSGSGSGTDYTFTISSLQPEDIATYYCQQGNTLPLTFGGGTKVEIK
Regarding B3, the Kd in experiment [4] stood at 2.5 nM. The molecule further yielded a koff in [4] of 0.00038 s⁻¹. Further, the kon in [4] turned out to be 150000 M⁻¹ s⁻¹. Also, the binding result (with mouse HER3 antigen [15]; in experiment [16]; in the experiment with murine HER4 antigen [17]; with cynomolgus HER3 antigen [18]; with mouse EGFR antigen [19]; with human HER4 antigen [20]) was “no binding (tested: 40 nM antibody (negative: OD<0.1))” throughout. The binding result (in experiment [21]; in the experiment with cynomolgus EGFR antigen [22]; in the experiment with mouse HER2 antigen [23]) was “no binding (tested: 40 nM antibody (negative: OD<0.1))” each time.
